Measurements: US6017871A, “Protease-containing cleaning compositions” (The Procter & Gamble Company, priority 1997, dated 2000)
Numbered stars: 1 amine (or outer) side, 2 acyl side, 3 side chain; on linkers, the order of the positions; unused ones are H or OH. Peptide text beside a SMILES is read from it. * marks the point of attachment. pNA = O=[N+]([O-])c1ccc(N*)cc1; Suc = O=C(CCC(=O)[*:2])[*:1]

T1: Bacillus lentus subtilisin (GG36), wild type, Seq. ID No.10 (Lederbergia lenta, UniProt P29600)
T1 construct: The mature subtilisin protein is coded by the codons beginning at the codon GCG (334-336) corresponding to Ala; made in house; host or cells: Bacillus subtilis
T1 sequence (P29600 1-269): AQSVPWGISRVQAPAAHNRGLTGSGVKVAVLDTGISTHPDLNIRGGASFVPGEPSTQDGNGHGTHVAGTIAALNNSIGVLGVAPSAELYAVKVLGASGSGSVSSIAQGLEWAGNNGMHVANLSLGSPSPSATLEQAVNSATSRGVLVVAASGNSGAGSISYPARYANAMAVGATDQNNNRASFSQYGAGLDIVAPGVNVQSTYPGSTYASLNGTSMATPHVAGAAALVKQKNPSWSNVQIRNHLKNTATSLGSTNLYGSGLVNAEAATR


How the values were obtained:
Assay in all cases: Kinetic parameters for hydrolysis of synthetic peptide substrate
[1] = target: T2, B. amyloliquefaciens subtilisin (BPN'), wild type, Seq. ID No.7 (Bacillus amyloliquefaciens, UniProt P00782); type: biochemical; details: Table V; 0.1 M Tris-HCL buffer, pH 8.6, 25° C.
T2 construct: made in house; host or cells: protease-deficient Bacillus subtilis
Method: (§1) The kinetic parameters kcat, KM, and kcat KM are measured for hydrolysis of the synthetic peptide substrate succinyl-L-Ala-L-Ala-L-Pro-L-Phe-p-nitroanilide using the method described in P. Bonneau et al. (1991) J. Am. Chem. Soc., Vol. 113, No. 3, p. 1030. Briefly, a small aliquot of subtilisin variant stock solution is added to a 1 cm cuvette containing substrate dissolved in 0.1 M Tris-HCL buffer, pH 8.6, and thermostated at 25° C. The reaction progress is followed spectrophotometrically by monitoring the absorbance of the reaction product p-nitroaniline at 410 nm. Kinetic parameters are obtained by using a non-linear regression algorithm to fit the reaction velocity and product concentration for each reaction to the Michaelis-Menten equation.
(§2) Numerous variants are made as per the teachings of these Protease Manufacture Examples. Kinetics data and stability data are generated for such variants. The kinetics data are generated using the methods described hereinbefore and are provided in Table V. The stability data are generated as detailed herein.

[2] = target: T1, Bacillus lentus subtilisin (GG36), wild type, Seq. ID No.10; type: biochemical; details: Table III; 0.1 M Tris-HCL buffer, pH 8.6, 25° C.
Method: as §1, §2

[3] = substrate: C[C@H](NC(=O)CCC(=O)O)C(=O)N[C@@H](C)C(=O)N1CCC[C@H]1C(=O)N[C@@H](Cc1ccccc1)C(=O)Nc1ccc([N+](=O)[O-])cc1; type: biochemical, Bacillus lentus; details: other: Table III, 0.1 M Tris-HCL buffer, pH 8.6, 25° C.
Method: as §1, §2

[4] = substrate: C[C@H](NC(=O)CCC(=O)O)C(=O)N[C@@H](C)C(=O)N1CCC[C@H]1C(=O)N[C@@H](Cc1ccccc1)C(=O)Nc1ccc([N+](=O)[O-])cc1; type: biochemical, Bacillus lentus; details: other: Table III, 0.1 M Tris-HCL buffer, pH 8.6, 25° C.; remark: listed apart in the source
Method: as §1

[5] = substrate: C[C@H](NC(=O)CCC(=O)O)C(=O)N[C@@H](C)C(=O)N1CCC[C@H]1C(=O)N[C@@H](Cc1ccccc1)C(=O)Nc1ccc([N+](=O)[O-])cc1; type: biochemical, Bacillus amyloliquefaciens; details: other: Table V, 0.1 M Tris-HCL buffer, pH 8.6, 25° C.
Method: as §1, §2

T2 sequence (P00782 108-382): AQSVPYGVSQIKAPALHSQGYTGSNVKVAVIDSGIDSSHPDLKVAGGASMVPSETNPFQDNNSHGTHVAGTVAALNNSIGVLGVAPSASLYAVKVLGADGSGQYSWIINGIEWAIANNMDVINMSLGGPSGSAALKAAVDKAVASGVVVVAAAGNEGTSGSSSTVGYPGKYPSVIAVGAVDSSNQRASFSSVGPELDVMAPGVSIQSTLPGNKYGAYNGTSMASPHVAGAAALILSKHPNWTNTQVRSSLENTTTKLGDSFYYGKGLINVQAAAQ

Molecule	Km [4]	kcat [4]	kcat/Km [4]	also measured
C[C@H](NC(=O)CCC(=O)O)C(=O)N[C@@H](C)C(=O)N1CCC[C@H]1C(=O)N[C@@H](Cc1ccccc1)C(=O)Nc1ccc([N+](=O)[O-])cc1 [succinyl-L-Ala-L-Ala-L-Pro-L-Phe-p-nitroanilide] (Suc-AAPF-pNA)				kcat [1]: 50 s⁻¹; kcat/KM [1]: 3.60E + 05 s^-1 M^-1; kcat/KM [2]: 218000 M⁻¹ s⁻¹
Bacillus lentus subtilisin (GG36), wild type, Seq. ID No.10 (Lederbergia lenta) (protein, The mature subtilisin protein is coded by the codons beginning at the codon GCG (334-336) corresponding to Ala; made in house; host or cells: Bacillus subtilis) AQSVPWGISRVQAPAAHNRGLTGSGVKVAVLDTGISTHPDLNIRGGASFVPGEPSTQDGNGHGTHVAGTIAALNNSIGVLGVAPSAELYAVKVLGASGSGSVSSIAQGLEWAGNNGMHVANLSLGSPSPSATLEQAVNSATSRGVLVVAASGNSGAGSISYPARYANAMAVGATDQNNNRASFSQYGAGLDIVAPGVNVQSTYPGSTYASLNGTSMATPHVAGAAALVKQKNPSWSNVQIRNHLKNTATSLGSTNLYGSGLVNAEAATR				Km [3]: 780 µM; kcat [3]: 170 s⁻¹; kcat/Km [3]: 2.20E + 05 s^-1 M^-1
Bacillus lentus subtilisin variant N76D/S99D/S101R (Protease #7) (Lederbergia lenta; N74D/S97D/S99R) (protein, The mature subtilisin protein is coded by the codons beginning at the codon GCG (334-336) corresponding to Ala; made in house; host or cells: Bacillus subtilis) AQSVPWGISRVQAPAAHNRGLTGSGVKVAVLDTGISTHPDLNIRGGASFVPGEPSTQDGNGHGTHVAGTIAALDNSIGVLGVAPSAELYAVKVLGADGRGSVSSIAQGLEWAGNNGMHVANLSLGSPSPSATLEQAVNSATSRGVLVVAASGNSGAGSISYPARYANAMAVGATDQNNNRASFSQYGAGLDIVAPGVNVQSTYPGSTYASLNGTSMATPHVAGAAALVKQKNPSWSNVQIRNHLKNTATSLGSTNLYGSGLVNAEAATR	380 µM	146 s⁻¹	384000 M⁻¹ s⁻¹	
Bacillus lentus subtilisin variant N76D (Lederbergia lenta; N74D) (protein, The mature subtilisin protein is coded by the codons beginning at the codon GCG (334-336) corresponding to Ala; made in house; host or cells: Bacillus subtilis) AQSVPWGISRVQAPAAHNRGLTGSGVKVAVLDTGISTHPDLNIRGGASFVPGEPSTQDGNGHGTHVAGTIAALDNSIGVLGVAPSAELYAVKVLGASGSGSVSSIAQGLEWAGNNGMHVANLSLGSPSPSATLEQAVNSATSRGVLVVAASGNSGAGSISYPARYANAMAVGATDQNNNRASFSQYGAGLDIVAPGVNVQSTYPGSTYASLNGTSMATPHVAGAAALVKQKNPSWSNVQIRNHLKNTATSLGSTNLYGSGLVNAEAATR	800 µM	219 s⁻¹	274000 M⁻¹ s⁻¹	
Bacillus lentus subtilisin variant N76D/V104I (Protease #4) (Lederbergia lenta; N74D/V102I) (protein, The mature subtilisin protein is coded by the codons beginning at the codon GCG (334-336) corresponding to Ala; made in house; host or cells: Bacillus subtilis) AQSVPWGISRVQAPAAHNRGLTGSGVKVAVLDTGISTHPDLNIRGGASFVPGEPSTQDGNGHGTHVAGTIAALDNSIGVLGVAPSAELYAVKVLGASGSGSISSIAQGLEWAGNNGMHVANLSLGSPSPSATLEQAVNSATSRGVLVVAASGNSGAGSISYPARYANAMAVGATDQNNNRASFSQYGAGLDIVAPGVNVQSTYPGSTYASLNGTSMATPHVAGAAALVKQKNPSWSNVQIRNHLKNTATSLGSTNLYGSGLVNAEAATR	1100 µM	459 s⁻¹	417000 M⁻¹ s⁻¹	
Bacillus lentus subtilisin variant N76D/N123S (Protease #6) (Lederbergia lenta; N121S/N74D) (protein, The mature subtilisin protein is coded by the codons beginning at the codon GCG (334-336) corresponding to Ala; made in house; host or cells: Bacillus subtilis) AQSVPWGISRVQAPAAHNRGLTGSGVKVAVLDTGISTHPDLNIRGGASFVPGEPSTQDGNGHGTHVAGTIAALDNSIGVLGVAPSAELYAVKVLGASGSGSVSSIAQGLEWAGNNGMHVASLSLGSPSPSATLEQAVNSATSRGVLVVAASGNSGAGSISYPARYANAMAVGATDQNNNRASFSQYGAGLDIVAPGVNVQSTYPGSTYASLNGTSMATPHVAGAAALVKQKNPSWSNVQIRNHLKNTATSLGSTNLYGSGLVNAEAATR	1800 µM	115 s⁻¹	64000 M⁻¹ s⁻¹	
Bacillus lentus subtilisin variant N76D/I107V (Protease #5) (Lederbergia lenta; I105V/N74D) (protein, The mature subtilisin protein is coded by the codons beginning at the codon GCG (334-336) corresponding to Ala; made in house; host or cells: Bacillus subtilis) AQSVPWGISRVQAPAAHNRGLTGSGVKVAVLDTGISTHPDLNIRGGASFVPGEPSTQDGNGHGTHVAGTIAALDNSIGVLGVAPSAELYAVKVLGASGSGSVSSVAQGLEWAGNNGMHVANLSLGSPSPSATLEQAVNSATSRGVLVVAASGNSGAGSISYPARYANAMAVGATDQNNNRASFSQYGAGLDIVAPGVNVQSTYPGSTYASLNGTSMATPHVAGAAALVKQKNPSWSNVQIRNHLKNTATSLGSTNLYGSGLVNAEAATR	1100 µM	219 s⁻¹	199000 M⁻¹ s⁻¹	
Bacillus lentus subtilisin variant N76D/S101R (Protease #2) (Lederbergia lenta; N74D/S99R) (protein, The mature subtilisin protein is coded by the codons beginning at the codon GCG (334-336) corresponding to Ala; made in house; host or cells: Bacillus subtilis) AQSVPWGISRVQAPAAHNRGLTGSGVKVAVLDTGISTHPDLNIRGGASFVPGEPSTQDGNGHGTHVAGTIAALDNSIGVLGVAPSAELYAVKVLGASGRGSVSSIAQGLEWAGNNGMHVANLSLGSPSPSATLEQAVNSATSRGVLVVAASGNSGAGSISYPARYANAMAVGATDQNNNRASFSQYGAGLDIVAPGVNVQSTYPGSTYASLNGTSMATPHVAGAAALVKQKNPSWSNVQIRNHLKNTATSLGSTNLYGSGLVNAEAATR	1300 µM	371 s⁻¹	285000 M⁻¹ s⁻¹	
Bacillus lentus subtilisin variant N76D/S99D (Protease #1) (Lederbergia lenta; N74D/S97D) (protein, The mature subtilisin protein is coded by the codons beginning at the codon GCG (334-336) corresponding to Ala; made in house; host or cells: Bacillus subtilis) AQSVPWGISRVQAPAAHNRGLTGSGVKVAVLDTGISTHPDLNIRGGASFVPGEPSTQDGNGHGTHVAGTIAALDNSIGVLGVAPSAELYAVKVLGADGSGSVSSIAQGLEWAGNNGMHVANLSLGSPSPSATLEQAVNSATSRGVLVVAASGNSGAGSISYPARYANAMAVGATDQNNNRASFSQYGAGLDIVAPGVNVQSTYPGSTYASLNGTSMATPHVAGAAALVKQKNPSWSNVQIRNHLKNTATSLGSTNLYGSGLVNAEAATR	610 µM	88 s⁻¹	144000 M⁻¹ s⁻¹	
Bacillus lentus subtilisin variant N76D/S103A (Protease #3) (Lederbergia lenta; N74D/S101A) (protein, The mature subtilisin protein is coded by the codons beginning at the codon GCG (334-336) corresponding to Ala; made in house; host or cells: Bacillus subtilis) AQSVPWGISRVQAPAAHNRGLTGSGVKVAVLDTGISTHPDLNIRGGASFVPGEPSTQDGNGHGTHVAGTIAALDNSIGVLGVAPSAELYAVKVLGASGSGAVSSIAQGLEWAGNNGMHVANLSLGSPSPSATLEQAVNSATSRGVLVVAASGNSGAGSISYPARYANAMAVGATDQNNNRASFSQYGAGLDIVAPGVNVQSTYPGSTYASLNGTSMATPHVAGAAALVKQKNPSWSNVQIRNHLKNTATSLGSTNLYGSGLVNAEAATR	1400 µM	400 s⁻¹	286000 M⁻¹ s⁻¹	
B. amyloliquefaciens subtilisin (BPN') variant BPN'-N76D/Y217L (Bacillus amyloliquefaciens; N183D/Y324L) (protein, made in house; host or cells: protease-deficient Bacillus subtilis) AQSVPYGVSQIKAPALHSQGYTGSNVKVAVIDSGIDSSHPDLKVAGGASMVPSETNPFQDNNSHGTHVAGTVAALDNSIGVLGVAPSASLYAVKVLGADGSGQYSWIINGIEWAIANNMDVINMSLGGPSGSAALKAAVDKAVASGVVVVAAAGNEGTSGSSSTVGYPGKYPSVIAVGAVDSSNQRASFSSVGPELDVMAPGVSIQSTLPGNKYGALNGTSMASPHVAGAAALILSKHPNWTNTQVRSSLENTTTKLGDSFYYGKGLINVQAAAQ				Km [5]: 460 µM; kcat [5]: 380 s⁻¹; kcat/Km [5]: 8.30E + 05 s^-1 M^-1
